For one substance, Kd results are on record in patent publication US20150368661A1.

What is called Kd is the concentration at which binding is half-saturated.

For this assay, the target named is recombinant hemagglutinin (HA) (A/New Caledonia/20/99; Protein Sciences) (influenza A virus A/New Caledonia/20/99 (H1N1)).

On to “plant-produced anti-influenza bnMAb CR6261 IgG1 (expressed in N. benthamiana) (antibody)”, for which the Kd is 0.055 nM.
